Key:
[1] = molecular target: T1, rHuman IGF-1 sR (IGF-1 sR), CF (R&D Systems Cat#391-GR) (human, UniProt P08069 31-932); assay: ECL (MSD Multi-Spot) titration, antigen spotted on plate; Fab 15 nM; blank spot 536;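 note: blank spot per well as comparator with Hit at signal to blank ratio of 4 or more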
T1 construct: Bought soluble receptor; also called insulin-like growth factor-1 soluble receptor; IGF-R1

[2] = molecular target: T2, Recombinant Human DLL4 (R&D Systems Cat#1506-D4/CF) (human, UniProt Q9NR61 27-524); assay: as above
T2 construct: Bought recombinant protein; also called delta-like protein 4

[3] = molecular target: T3, rHuman ErbB2/Fc Chimera, CF (R&D Systems Cat#1129-ER) (human, UniProt P04626 23-652); assay: as above
T3 construct: Bought Fc chimera; also called HER2/neu; human epidermal growth factor 2 receptor; Fc part of the bought chimera not given

[4] = molecular target: T4, rHuman CD44/Fc Chimera, CF (R&D Systems Cat#3660-CD) (human, UniProt P16070 21-220); assay: as above
T4 construct: Bought Fc chimera; Fc part of the bought chimera not given

[5] = molecular target: T1, rHuman IGF-1 sR (IGF-1 sR), CF (R&D …); assay: ECL (MSD Multi-Spot) titration, antigen spotted on plate; Fab 60 nM; blank spot 1433;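 note: blank spot per well as comparator with Hit at signal to blank ratio of 4 or more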
[6] = molecular target: T2, Recombinant Human DLL4 (R&D Systems …); assay: as above
[7] = molecular target: T3, rHuman ErbB2/Fc Chimera, CF (R&D …); assay: as above
[8] = molecular target: T4, rHuman CD44/Fc Chimera, CF (R&D Systems …); assay: as above
[9] = molecular target: T1, rHuman IGF-1 sR (IGF-1 sR), CF (R&D …); assay: ECL (MSD Multi-Spot) titration, antigen spotted on plate; Fab 3.75 nM; blank spot 191;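 note: blank spot per well as comparator with Hit at signal to blank ratio of 4 or more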
[10] = molecular target: T2, Recombinant Human DLL4 (R&D Systems …); assay: as above
[11] = molecular target: T3, rHuman ErbB2/Fc Chimera, CF (R&D …); assay: as above
[12] = molecular target: T4, rHuman CD44/Fc Chimera, CF (R&D Systems …); assay: as above
[13] = molecular target: T1, rHuman IGF-1 sR (IGF-1 sR), CF (R&D …); assay: ECL (MSD Multi-Spot) titration, antigen spotted on plate; Fab 0.9375 nM; blank spot 153;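 note: blank spot per well as comparator with Hit at signal to blank ratio of 4 or more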
[14] = molecular target: T2, Recombinant Human DLL4 (R&D Systems …); assay: as above
[15] = molecular target: T3, rHuman ErbB2/Fc Chimera, CF (R&D …); assay: as above
[16] = molecular target: T4, rHuman CD44/Fc Chimera, CF (R&D Systems …); assay: as above
[17] = molecular target: T1, rHuman IGF-1 sR (IGF-1 sR), CF (R&D …); assay: ECL (MSD Multi-Spot) titration, antigen spotted on plate; Fab 0.096 µM; blank spot 917
[18] = molecular target: T1, rHuman IGF-1 sR (IGF-1 sR), CF (R&D …); assay: ECL (MSD Multi-Spot) titration, antigen spotted on plate; Fab 0.48 µM; blank spot 2945
[19] = molecular target: T1, rHuman IGF-1 sR (IGF-1 sR), CF (R&D …); assay: ECL (MSD Multi-Spot) titration, antigen spotted on plate; Fab 0.0192 µM; blank spot 751
[20] = molecular target: T1, rHuman IGF-1 sR (IGF-1 sR), CF (R&D …); assay: ECL (MSD Multi-Spot) titration, antigen spotted on plate; Fab 0.51 µM; blank spot 1096;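 note: blank spot per well as comparator with Hit at signal to blank ratio of 4 or more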
[21] = molecular target: T2, Recombinant Human DLL4 (R&D Systems …); assay: as above
[22] = molecular target: T3, rHuman ErbB2/Fc Chimera, CF (R&D …); assay: as above
[23] = molecular target: T5, rHuman HGF R/c-MET/Fc Chimera, CF (R&D Systems Cat#358-MT/CF) (human, UniProt P08581 25-932); assay: as above
T5 construct: Bought Fc chimera; also called HGF R/Fc; hepatocyte growth factor receptor; Fc part of the bought chimera not given

[24] = molecular target: T4, rHuman CD44/Fc Chimera, CF (R&D Systems …); assay: as above
[25] = molecular target: T1, rHuman IGF-1 sR (IGF-1 sR), CF (R&D …); assay: ECL (MSD Multi-Spot) titration, antigen spotted on plate; Fab 0.1275 µM; blank spot 530;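 note: blank spot per well as comparator with Hit at signal to blank ratio of 4 or more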
[26] = molecular target: T2, Recombinant Human DLL4 (R&D Systems …); assay: as above
[27] = molecular target: T3, rHuman ErbB2/Fc Chimera, CF (R&D …); assay: as above
[28] = molecular target: T5, rHuman HGF R/c-MET/Fc Chimera, CF (R&D …); assay: as above
[29] = molecular target: T4, rHuman CD44/Fc Chimera, CF (R&D Systems …); assay: as above
[30] = molecular target: T1, rHuman IGF-1 sR (IGF-1 sR), CF (R&D …); assay: ECL (MSD Multi-Spot) titration, antigen spotted on plate; Fab 0.00797 µM; blank spot 364;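 note: blank spot per well as comparator with Hit at signal to blank ratio of 4 or more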
[31] = molecular target: T2, Recombinant Human DLL4 (R&D Systems …); assay: as above
[32] = molecular target: T3, rHuman ErbB2/Fc Chimera, CF (R&D …); assay: as above
[33] = molecular target: T5, rHuman HGF R/c-MET/Fc Chimera, CF (R&D …); assay: as above
[34] = molecular target: T4, rHuman CD44/Fc Chimera, CF (R&D Systems …); assay: as above
[35] = molecular target: T1, rHuman IGF-1 sR (IGF-1 sR), CF (R&D …); assay: ECL (MSD Multi-Spot) titration, antigen spotted on plate; Fab 0.03188 µM; blank spot 536;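 note: blank spot per well as comparator with Hit at signal to blank ratio of 4 or more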
[36] = molecular target: T2, Recombinant Human DLL4 (R&D Systems …); assay: as above
[37] = molecular target: T3, rHuman ErbB2/Fc Chimera, CF (R&D …); assay: as above
[38] = molecular target: T5, rHuman HGF R/c-MET/Fc Chimera, CF (R&D …); assay: as above
[39] = molecular target: T4, rHuman CD44/Fc Chimera, CF (R&D Systems …); assay: as above

B1: Fab VH1-3_IGHD4-23*01_IGHJ4*01 & L12_IGKJ1*01 (Fab, V domains shown)
VH: QVQLVQSGAEVKKPGASVKVSCKASGYTFTSYAMHWVRQAPGQRLEWMGWSNAGNGNTKYSQEFQGRVTITRDTSASTAYMELSSLRSEDMAVYYCARDDYGGNSDYFDYWGQGTLVTVSS
VL: not shown
ECL signal [1]: 859 | ECL signal [2]: 7730 | ECL signal [3]: 740 | ECL signal [4]: 748 | ECL signal [5]: 2670 | ECL signal [6]: 17300 | ECL signal [7]: 2160 | ECL signal [8]: 2360 | ECL signal [9]: 314 | ECL signal [10]: 1570 | ECL signal [11]: 291 | ECL signal [12]: 307 | ECL signal [13]: 204 | ECL signal [14]: 453 | ECL signal [15]: 268 | ECL signal [16]: 251

B2: Fab VH1-46_IGHD6-13*01_IGHJ4*01 & A27_IGKJ1*01 (Fab, V domains shown)
VH: QVQLVQSGAEVKKPGASVKVSCKASGYTFTSYYMHWVRQAPGQGLEWMGIINPSGGSTSYAQKFQGRVTMTRDTSTSTVYMELSSLRSEDTAVYYCAREGYSSSWYDYFDYWGQGTLVTVSS
VL: not shown
notes: Made as a Fab in E. coli: VH joined to the CH1 of Plasmid A (Flag and His tags), VL joined to the kappa constant region of Plasmid C
ECL signal [17]: 2450 | ECL signal [18]: 8930 | ECL signal [19]: 1830

B3: Fab VH4-34_IGHD7-27*01_IGHJ4*01 & L5_IGKJ1*01 (Fab, V domains shown)
VH: QVQLQQWGAGLLKPSETLSLTCAVYGGSFSGYYWSWIRQPPGKGLEWIGEINHSGSTNYNPSLKSRVTISVDTSKNQFSLKLSSVTAADTAVYYCARANWGDYFDYWGQGTLVTVSS
VL: DIQMTQSPSSVSASVGDRVTITCRASQGISSWLAWYQQKPGKAPKLLIYAASSLQSGVPSRFSGSGSGTDFTLTISSLQPEDFATYYCQQANSFPPWTFGQGTKVEIKR
notes: as for B2
ECL signal [20]: 2240 | ECL signal [21]: 5180 | ECL signal [22]: 1530 | ECL signal [23]: 1990 | ECL signal [24]: 2010 | ECL signal [25]: 1040 | ECL signal [26]: 2380 | ECL signal [27]: 857 | ECL signal [28]: 853 | ECL signal [29]: 926 | ECL signal [30]: 564 | ECL signal [31]: 872 | ECL signal [32]: 493 | ECL signal [33]: 419 | ECL signal [34]: 490 | ECL signal [35]: 765 | ECL signal [36]: 1280 | ECL signal [37]: 584 | ECL signal [38]: 693 | ECL signal [39]: 653
